# In patent publication US20250188151A1, “C-JUN ANTAGONIST PEPTIDES” (The University of Bath, priority 2022, published 2025):
# Entries after “also recorded” stand apart in the source; their conditions may differ. Where two headings read alike, the source gives them in different places. Numbered stars: 1 amine (or outer) side, 2 acyl side, 3 side chain; on linkers, the order of the positions; unused ones are H or OH. Bridge positions count the residues as written; N and C are the ends. Ends that are not written are not given here. mXylylene = c1cc(C[*:1])cc(C[*:2])c1
# T1: cJun bZIP (human, UniProt P05412 252-308, limits assumed)
# T1 chain: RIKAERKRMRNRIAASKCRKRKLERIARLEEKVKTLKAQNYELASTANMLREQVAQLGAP
# T2: HingeW (synthetic construct)
# T2 chain: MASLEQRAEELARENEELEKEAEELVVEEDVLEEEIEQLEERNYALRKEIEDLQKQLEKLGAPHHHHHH
# T3: A-FosW (synthetic construct)
# T3 chain: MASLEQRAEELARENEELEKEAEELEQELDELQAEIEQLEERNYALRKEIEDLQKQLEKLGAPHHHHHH
# B1: cJun bZIP (protein)
# chain: RIKAERKRMRNRIAASKCRKRKLERIARLEEKVKTLKAQNYELASTANMLREQVAQLGAP
# B2: HingeW peptide variant 23 (peptide)
# peptide: Ac-EAEELVVEEDVLEEEIEQLEERNYALRKEIKDLQDQ-NH2
# modifications: lactam 31-35
# SMILES: CC[C@H](C)[C@H](NC(=O)[C@H](CCC(=O)O)NC(=O)[C@H](CCCCN)NC(=O)[C@H](CCCNC(=N)N)NC(=O)[C@H](CC(C)C)NC(=O)[C@H](C)NC(=O)[C@H](Cc1ccc(O)cc1)NC(=O)[C@H](CC(N)=O)NC(=O)[C@H](CCCNC(=N)N)NC(=O)[C@H](CCC(=O)O)NC(=O)[C@H](CCC(=O)O)NC(=O)[C@H](CC(C)C)NC(=O)[C@H](CCC(N)=O)NC(=O)[C@H](CCC(=O)O)NC(=O)[C@@H](NC(=O)[C@H](CCC(=O)O)NC(=O)[C@H](CCC(=O)O)NC(=O)[C@H](CCC(=O)O)NC(=O)[C@H](CC(C)C)NC(=O)[C@@H](NC(=O)[C@H](CC(=O)O)NC(=O)[C@H](CCC(=O)O)NC(=O)[C@H](CCC(=O)O)NC(=O)[C@@H](NC(=O)[C@@H](NC(=O)[C@H](CC(C)C)NC(=O)[C@H](CCC(=O)O)NC(=O)[C@H](CCC(=O)O)NC(=O)[C@H](C)NC(=O)[C@H](CCC(=O)O)NC(C)=O)C(C)C)C(C)C)C(C)C)[C@@H](C)CC)C(=O)N[C@H]1CCCCNC(=O)C[C@@H](C(=O)N[C@@H](CCC(N)=O)C(N)=O)NC(=O)[C@H](CCC(N)=O)NC(=O)[C@H](CC(C)C)NC(=O)[C@H](CC(=O)O)NC1=O
# notes: Synthetic, NΔ20 CΔ7; Best single lactamised peptide; also called cyclised form of 22/23
# B3: A-FosW (peptide)
# peptide: MASLEQRAEELARENEELEKEAEELEQELDELQAEIEQLEERNYALRKEIEDLQKQLEKLGAPHHHHHH
# notes: Recombinant, capped and C-terminally 6xHis-tagged; also called rationally designed A-FosW template; parent peptide
# B4: TRE duplex (dsDNA)
# DNA 1: GTCAGTCAGTGACTCAATCGGTCA
# DNA 2: TGACCGATTGAGTCACTGACTGAC
# B5: FosW (peptide)
# peptide: MASLDELQAEIEQLEERNYALRKEIEDLQKQLEKLGAPHHHHHH
# modifications: not fully specified
# notes: Recombinant, capped and C-terminally 6xHis-tagged; Lacks the acidic extension
# Key:
# [1] = molecular target: c-Jun bZIP (expressed in E. coli) (Homo sapiens) (UniProt P05412); experiment: cell_activity; details: TBS assay
# [2] = molecular target: T4, cJun bZIP/TRE DNA interaction (transcriptional block of TRE-mDHFR) (Homo sapiens, UniProt P05412, S292Y); experiment: Transcription Block Survival (TBS) assay: colony counting and growth competition in E. coli; type: cell-based; details: vs transcriptionally blocked cells (TRE-mDHFR + cJun bZIP)
# T4 construct: expressed in transfected cells; host or cells: E. coli BL21 Gold carrying pES300d-TRE-mDHFR and pES230d-cJun bZIP
# Excerpt: Library Construction and TBS Assay: Library inserts were produced using PCR fill-in reactions from synthesised primers (Sigma) with degenerate codons at the desired positions to produce the correct residue options. The library was subcloned using SacI and AscI sites into the pET24a plasmid containing A-FosW. The primers used were cJun-Hinge-Lib-F: 5′-[…] TATGCC-3′ (SEQ ID NO: 49) and cJun-Hinge-Lib_R: 5′-[…] GTTC-3′ (SEQ ID NO: 50). The library DNA was transformed into NEB 10-beta electrocompetent E. coli cells. The following equation was utilised to determine library coverage by the number of single colonies: E=100×(1−1/n)^m where E is the percentage of the library missing, m is the number of colonies collected and n is the library size. […] Library DNA quality was assessed by sequencing both the DNA pool and a number of single colonies to show degenerate codons in the correct positions in the pool and to show a diversity of library members from single colonies. The pool of library DNA was transformed into BL21 Gold cells already containing pES300d-TRE-mDHFR and pES230d-cJun bZIP.
# Selective pressure is applied by growing the bacteria in M9 minimal media with TMP (2-4 μM) alongside ampicillin, kanamycin and chloramphenicol to maintain the required plasmids, and IPTG (1 mM) to induce protein expression. The library transformants were first plated out onto selective agar plates (2 μM TMP) and grown at 37° C. for 72-96 h. Optimisation experiments (FIG. 5) indicate that 4 μM TMP is optimum for selection however a lower stringency is used initially before selection is increased in later steps. Colonies from this first round of selection were pooled and serially grown in liquid culture at starting OD600 of 0.05 and grown at 37° C. with shaking at 200 rpm until the OD600 reached 0.6. TMP concentration was 2 μM in the first liquid culture passage before it was increased to the optimum 4 μM in subsequent passages. […] At each passage step, a sample of the culture was plated on LB agar (supplemented with antibiotics to maintain plasmids) to select and sequence individual colonies, and a DNA pool was also sequenced. This allows the occurrence of library members to be monitored as winner sequences are selected for. Assay Validation experiments utilised a modified assay methodology whereby overnight cultures from glycerol stocks of the Control Strains (Table 2) were diluted to OD600=0.5 and 50 μL was plated on a selective M9 minimal medium agar plate.
# Transcription block survival (TBS) is an intracellular assay that utilises cell survival as a readout. […] This enzyme is absolutely essential for survival since it is required for the production of purines needed for DNA and amino acid synthesis. […]. We produced a mDHFR gene (FIGS. 2 and 3) by rational design to introduce 15 TRE sites into the coding DNA sequence to allow a robust cJun transcriptional block whilst minimising alteration to the expressed protein (TRE-mDHFR). In particular, the resulting TRE-mDHFR construct was produced via two silent and thirteen conservative mutations. […] The accessible surface areas of all other amino acid residues were calculated using the ‘Accessible Surface Area and Accessibility Calculation for Protein’ tool (http://cib.cf.ocha.ac.jp/bitool/ASA/). […]
# [3] = molecular target: cJun bZIP (Homo sapiens, UniProt P05412, S292Y); experiment: CD spectra and thermal denaturation of peptide/cJun heterodimers; details: for Tm (° C.) (CD): heterodimer with cJun bZIP, Example 1
# [4] = molecular target: T1, cJun bZIP; experiment: cell-based or functional assay
# [5] = molecular target: T1, cJun bZIP; experiment: cell-based or functional assay
# [6] = molecular target: T1, cJun bZIP; experiment: CD thermal denaturation
# [7] = molecular target: T1, cJun bZIP; experiment: cell-based or functional assay
# [8] = molecular target: T1, cJun bZIP; experiment: CD thermal denaturation, peptide 5 µM and c-Jun 5 µM
# [9] = molecular target: T1, cJun bZIP; experiment: ITC (PEAQ-ITC), peptide injected into cJun, one site model
# [10] = molecular target: T1, cJun bZIP; experiment: CD spectra at 20 °C
# [11] = tested on: TRE DNA; experiment: CD control: peptide with TRE DNA; type: binding
# Description: Circular Dichroism (CD): An Applied Photophysics Chirascan was used for CD measurements, with a 200 μL sample in a 1 mm path length CD cell. Protein/DNA samples were suspended in 150 mM potassium phosphate, 150 mM potassium fluoride and 5 mM TCEP at pH 7.4 and were equilibrated for 30 minutes before measurement. […] These scans were averaged and converted to molar residue ellipticities (MRE).
# [12] = molecular target: T1, cJun bZIP
# [13] = molecular target: T1, cJun bZIP; experiment: ITC, antagonist injected into cJun, one site model
# [14] = not given; remark: listed apart in the source
# [15] = molecular target: cJun (Homo sapiens, UniProt P05412, S292Y); experiment: CD dimer exchange experiments; details: A-FosW mixed with preformed HingeW/cJun heterodimer
# Description: Circular Dichroism (CD): An Applied Photophysics Chirascan was used for CD measurements, with a 200 μL sample in a 1 mm path length CD cell. Protein/DNA samples were suspended in 150 mM potassium phosphate, 150 mM potassium fluoride and 5 mM TCEP at pH 7.4 and were equilibrated for 30 minutes before measurement. […] These scans were averaged and converted to molar residue ellipticities (MRE). Thermal denaturation experiments were performed by measuring the ellipticity at 222 nm over a 1 to 90° C. gradient at 1° C. increments.
# [16] = CD spectra and thermal denaturation of peptide-only samples (helicity, homodimer Tm)
# Description: Circular Dichroism (CD): An Applied Photophysics Chirascan was used for CD measurements, with a 200 μL sample in a 1 mm path length CD cell. Protein/DNA samples were suspended in 150 mM potassium phosphate, 150 mM potassium fluoride and 5 mM TCEP at pH 7.4 and were equilibrated for 30 minutes before measurement. […] These scans were averaged and converted to molar residue ellipticities (MRE). Thermal denaturation experiments were performed by measuring the ellipticity at 222 nm over a 1 to 90° C. gradient at 1° C. increments. Post-melt scans at 20° C. confirmed the transitions were reversible as they overlaid within 10% of the pre-melt scan.
# Circular Dichroism (CD): An Applied Photophysics Chirascan was used for CD measurements, with a 200 μL sample in a 1 mm path length CD cell. Protein/DNA samples were suspended in 150 mM potassium phosphate, 150 mM potassium fluoride and 5 mM TCEP at pH 7.4 and were equilibrated for 30minutes before measurement. […] Thermal denaturation experiments were performed by measuring the ellipticity at 222 nm over a 1 to 90° C. gradient at 1° C. increments. Post-melt scans at 20° C. confirmed the transitions were reversible as they overlaid within 10% of the pre-melt scan.
# Peptide helicity was determined by quantifying the CD signal at 222 nm of peptide only samples. Thermal denaturation experiments were then used to determine the Tm of peptide-c-Jun heterodimers, which was used as an approximate measure of target engagement. […] The same 60 amino acid c-Jun bZIP construct was used for all experiments, regardless of antagonist peptide length.
# [17] = molecular target: T2, HingeW; experiment: CD, DNA spectrum unchanged; details: tags: C-terminal 6xHis
# [18] = molecular target: T3, A-FosW; experiment: CD, DNA spectrum unchanged; details: tags: C-terminal 6xHis
# [19] = molecular target: T1, cJun bZIP
molecule,measurement,setting,value
WT-mDHFR gene,activity (fold reduction in colony count),[1]; presumed nonspecific plasmid binding,1.3
MASLDELQAEIEQLEERNYALRKEIEDLQKQLEKLGAPHHHHHH [FosW],effect on TRE-mDHFR transcriptional block / colony numbers,[2],no significant increase in colony numbers; also recorded: unable to effectively dissociate the cJun bZIP from TRE DNA
same,Tm (° C.) (CD),[3],54 °C
"MASTDTLQAETDQLEDEKYALQTEIANLLKEKEKLGAPHHHHHH [cFos LZ, human cFos leucine zipper domain construct]",effect on TRE-mDHFR transcriptional block / colony numbers,[2],no significant increase in colony numbers; also recorded: unable to effectively dissociate the cJun bZIP from TRE DNA
TRE-mDHFR gene (15 TRE sites),activity (fold reduction in colony count),"[1]; 4 uM TMP, 1 mM IPTG",21
"EAEELVVEEDVLEEEIEQLEERNYALRAEICNLSCQ-NH2 (not fully specified; cysteine pairing not given here) [HingeW variant meta DBMBW, linear]","IC50 (µM), CD",[4],91.1 µM
B1,Tm (° C.) (CD),,39.8 ° C.
B2,fold lower IC50 than 11,[5],1.6 fold
same,heterodimer ΔTm against parent sequence 11,[6],~8 ° C.
same,heterodimer ΔTm from lactamisation (23 against linear 22),[6],~9 ° C.
same,IC50 CD,[7],52.7 µM
same,Tm (° C.) of peptide-c-Jun heterodimer,[8],65 ° C.
same,-TΔS,[9],14 kcal/mol
same,Kd,[9],0.0866 µM
same,"Stoichiometry, n",[9],0.97
same,ΔG,[9],-9.66 kcal/mol
same,ΔH,[9],-23.6 kcal/mol
"EAEELVVEEDVLEEEIEQLEERNYALRAEICNLSCQ-NH2 (linker 31-35 via mXylylene; not fully specified) [HingeW variant meta DBMBW, cyclised]","IC50 (µM), CD",[4],61.5 µM
"EAEELVVEEDVLEEEIEQLEERNYALRSEICSLQCQ-NH2 (linker 31-35 via mXylylene; not fully specified) [HingeW variant 0W, cyclised]","IC50 (µM), CD",[4],77.6 µM
B3,increase in α-helicity relative to the average of the two component spectra,[10],39%
same,"IC50, CD antagonism of cJun/TRE DNA (peak at ~281 nM)",[5],16 µM
same,"IC50, EMSA of free TRE DNA band",[5],12.1 µM
same,TBS assay colony numbers relative to TRE-mDHFR only,[5],60%
same,effect on TRE-mDHFR transcriptional block / colony numbers,[2],restore cell survival
same,interaction with TRE DNA,[11],no interaction
same,Tm (° C.) (CD),[12],69.9 ° C.
same,ΔTm from component average (CD),[12],27.5 ° C.
same,Kd,[13],0.0883 µM
same,TΔS (ITC),[13],-26.9 kcal/mol
same,ΔG (ITC),[13],-9.56 kcal/mol
same,ΔH (ITC),[13],-36.5 kcal/mol
same,Tm (° C.) (CD),[14],45.1 ° C.
same,dimer exchange,[15],no dimer exchange had occurred
same,Fraction helicity at 20° C. (CD),"[3]; heterodimer with c-Jun, equimolar, 10 μM total",38.7%
same,temperature of smaller initial transition (double transition),[3]; heterodimer with cJun,~30 °C
same,Tm (° C.) (CD),[3],69.9 °C
same,ΔTm from component average (CD),[3]; heterodimer with cJun vs average of component profiles,27.5 °C
same,Fraction helicity at 20° C. (CD),[16]; peptide alone,40.1%
same,Tm (° C.) (CD),[16]; peptide alone (homodimer),45.1 °C
"EAEELVVEEDVLEEEIEQLEERNYALRSEICSLQCQ-NH2 (not fully specified; cysteine pairing not given here) [HingeW variant 0W, linear]","IC50 (µM), CD",[4],86.7 µM
B4,binding result,[17],no binding
same,binding result,[18],no binding
B5,"IC50, CD antagonism of cJun/TRE DNA (peak at ~281 nM)",[5],120 µM
same,heterodimer Tm,[19],54 ° C.
